Consider 1 molecule from US11160869B2 (priority 2019, dated 2021).

For one data set, the target named is T1, IL-10RA and IL-10RB (Homo sapiens, UniProt Q08334+Q13651).
T1 sequence (Q13651 22-578): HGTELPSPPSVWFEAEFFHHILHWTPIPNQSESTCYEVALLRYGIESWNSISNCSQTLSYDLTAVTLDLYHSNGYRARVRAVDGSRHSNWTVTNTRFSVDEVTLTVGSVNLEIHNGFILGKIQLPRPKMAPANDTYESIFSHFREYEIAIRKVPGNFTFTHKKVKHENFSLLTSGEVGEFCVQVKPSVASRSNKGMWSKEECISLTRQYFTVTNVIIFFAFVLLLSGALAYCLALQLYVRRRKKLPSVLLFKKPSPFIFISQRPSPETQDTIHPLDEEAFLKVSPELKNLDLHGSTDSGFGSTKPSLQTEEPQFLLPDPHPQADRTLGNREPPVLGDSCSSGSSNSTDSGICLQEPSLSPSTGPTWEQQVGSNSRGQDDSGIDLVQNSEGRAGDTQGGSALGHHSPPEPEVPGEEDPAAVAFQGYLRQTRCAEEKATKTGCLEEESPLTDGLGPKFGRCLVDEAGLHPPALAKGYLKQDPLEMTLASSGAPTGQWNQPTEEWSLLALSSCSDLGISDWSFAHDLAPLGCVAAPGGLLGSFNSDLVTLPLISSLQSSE
T1 sequence (Q08334 20-325): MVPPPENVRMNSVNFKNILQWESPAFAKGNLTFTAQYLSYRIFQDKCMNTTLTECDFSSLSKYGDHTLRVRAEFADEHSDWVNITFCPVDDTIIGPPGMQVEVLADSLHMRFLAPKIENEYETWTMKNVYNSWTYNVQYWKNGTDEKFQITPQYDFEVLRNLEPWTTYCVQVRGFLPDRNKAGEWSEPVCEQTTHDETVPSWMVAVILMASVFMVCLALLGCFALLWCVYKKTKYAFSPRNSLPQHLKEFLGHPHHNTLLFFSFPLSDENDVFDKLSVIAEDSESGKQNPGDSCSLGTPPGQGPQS
Put plainly: IL-10 receptor dimerization luminescence assay in engineered U2OS cells. The conditions noted are these: read-out: EC50, IL-10R dimerization; 6 h.

A short description of data set [1]: Pan-colonic administration via sigmoidoscopy in NHP: plasma PK and PD. The format is in vivo, cynomolgus monkeys. The method, then: IL-10 delivery construct solution (at concentrations of 0.1, 0.3 and 1.0 mg/mL for the low, mid and high-dose groups respectively) was administered via the rectal route using sigmoidoscopy and a syringe connected to a spray nozzle with a 360° spray pattern. Serial biopsy samples were collected by sigmoidoscopy (pre-dose, 0.25, 0.5, 0.75, 8 and 24-28 hours post dose). Serial plasma samples from 0 min pre-dose to between 24-28 hours post-dose were collected for analysis for the IL-10 delivery construct.

The test system of another data set is IL-1Ra. Put plainly: Single oral capsule dose in NHP: plasma IL-1Ra. In kind it is in vivo, Macaca fascicularis. The method, then:
The purpose of the IL-1Ra assay was to measure endogenous IL-1Ra in NHP plasma. The antibody pair in this sandwich immunoassay reacted with both human and NHP IL-1Ra. Samples were quantitated using an 8-point standard curve prepared from a human IL-1Ra calibrator (ranging from 5.5-4021 pg/mL, plus 0 pg/mL). Biotinylated anti-NHP IL-1Ra capture antibody was added to a MSD Small Spot Streptavidin plate and incubated for an hour at RT with shaking. Controls that represent low ([…]), mid ([…]) and high concentrations (3245 pg/mL) were prepared in pooled plasma, Standards (Calibrator 9 Blend) were prepared in Diluent 43 (MSD Cat No R50AG), and samples diluted 10 fold in Diluent 43. Standards, controls and diluted samples were added to the assay plate, and the plate incubated for 2 hours at room temperature with shaking. The plate was washed 3 times with PBST, and 1× SULFO TAG anti-IL-1Ra Antibody added to the plate. The plate was incubated for 1 hour at room temperature with shaking. Following a wash step, 2×MSD Read buffer was added to the wells of the plate, and the plate read using the MSD Sector Imager 600 plate reader. The lower limit of detection of each analyte is defined as 2.5 standard deviation above background.
IL-10 delivery construct dosing at multiple fixed doses in non-naïve adult male Macaca fascicularis was conducted by Valley Biosystems (West Sacramento, Calif.). […] Dosing groups are described in TABLE 45.

The test system of data set [2] is chemokines, growth factors, cytokines. Nature of the data set: Luminex 38-plex circulating cytokines, oxazolone colitis (Example 14). In kind it is in vivo, mice. The method, then: Each sample was measured in duplicate.
The next data set has as its system STAT3. Put plainly: pSTAT3/total STAT3 in colon tissue of non-inflamed mice (ELISA MSD). In kind it is in vivo. The conditions noted are these: construct 1 mg/kg; rhIL-10 0.9 mg/kg; oral.
Data set [3] has as its system growth factors, chemokines and cytokines. In kind it is in vivo, mice.
A short description of data set [4]: Plasma rhIL-10, IL-10 delivery construct and IL-1Ra immunoassays, DSS study. The format is in vivo, mice. As to conditions: 0.3 and 3 mg/kg, 4 hours after final dose. The source says:
Plasma cytokines were quantified using the V-plex Proinflammatory Panel 1 Mouse Kit. Plasma IL-1Ra was quantitated by sandwich immunoassay using an antibody pair from the Mouse IL-1Ra/IL-1F3 DuoSet ELISA (R&D Systems #DY480), Streptavidin SULFO-TAG Labeled (MSD #R32AD-1), Multi-Array 96 Plate Pack, SECTOR Plate MSD #L15XA-3 and Read Buffer T (4×) (MSD #R92TC-2). Samples were read on the QuickPlex SQ 120 plate reader (Meso Scale Discovery, Rockville, Md.).
The Human IL-10 Base kit (MSD #K151AOA-4) was used to measure rhIL-10 in plasma. […] The MSD Small Spot IL-10 plate was incubated with Diluent 41 (25 μL/well) for 30 minutes at room temperature with shaking before use. Controls and samples were diluted 2-fold with pooled CD-1 mouse plasma (BioIVT, custom order), and the calibration standards were also prepared in mouse plasma. Standards, diluted samples and controls were added (25 μL/well), and the plate was incubated for 2 hours at room temperature with shaking. The plate was washed 3 times with phosphate buffered saline with Tween-20 (PBST), and 25 μL/well 1×SULFO TAG Anti-human IL-10 Antibody (prepared in Diluent 45) was added to the plate. The plate was incubated for 1 hour at room temperature with shaking. Following a wash step, 150 μL/well of 2×MSD Read buffer was added, and the plate was read in the MSD Sector Imager 600 plate reader.

B1: IL-10 delivery construct: recombinant homodimeric fusion protein: N-terminal methionine, cholix386 domain, polyGlySer spacer, recombinant human IL-10 (protein)
chain: MVEEALNIFDECRSPCSLTPEPGKPIQSKLSIPSDVVLDEGVLYYSMTINDEQNDIKDEDKGESIITIGEFATVRATRHYVNQDAPFGVIHLDITTENGTKTYSYNRKEGEFAINWLVPIGEDSPASIKISVDELDQQRNIIEVPKLYSIDLDNQTLEQWKTQGNVSFSVTRPEHNIAISWPSVSYKAAQKEGSRHKRWAHWHTGLALCWLVPMDAIYNYITQQNCTLGDNWFGGSYETVAGTPKVITVKQGIEQKPVEQRIHFSKGNAMSALAAHRVCGVPLETLARSRKPRDLTDDLSCAYQAQNIVSLFVATRILFSHLDSVFTLNLDEQEPEVAERLSDLRRINENNPGMVTQVLTVARQIYNDYVTHHPGLTPEQTSAGAQAGGGGSGGGGSGGGGSPGQGTQSENSCTHFPGNLPNMLRDLRDAFSRVKTFFQMKDQLDNLLLKESLLEDFKGYLGCQALSEMIQFYLEEVMPQAENQDPDIKAHVNSLGENLKTLRLRLRRCHRFLPCENKSKAVEQVKNAFNKLQEKGIYKAMSEFDIFINYIEAYMTMKIRN
modifications: homodimer
Broadly, the EC50 is the concentration that produces a half-maximal response. Regarding B1, in the data set with IL-10RA and IL-10RB, the EC50 is 0.971 nM. In data set [1] (3 mg and 10 mg doses), the “plasma IL-10 delivery construct concentration relative to IL-10” value came to 10 fold lower. In data set [1] (1, 3, 10 mg), the “systemic IFN-γ, IL-1β, IL-2, IL-8” value is “did not lead to an increase”. For the same molecule, the “plasma IL-1Ra” value in data set [1] (1, 3 and 10 mg) is on record as “induction of the plasma concentration of IL-1Ra was observed at all three doses”. Also, the “systemic IL-6” value in data set [1] (3 and 10 mg groups) was “moderately induced”. Moreover, the “time of maximal plasma IL-1Ra concentration” value in data set [1] (cynomolgus monkey, in vivo) lay in the range of 3 to 4 h. Also, the “time to detection of total IL-10 in plasma” value in data set [1] (single dose 1, 3 or 10 mg pan-colonic) is not above 15 min. Besides, in the data set on IL-1Ra (82 mg, oral), the “plasma IL-1Ra Cmax” value was 26,367 pg/mL and the “time of plasma IL-1Ra Cmax” value is on record as 3 hours post-dose. In the data set on IL-1Ra (all dose groups), the “time by which plasma IL-1Ra returned to baseline” value was not above 24 h. The “plasma IL-1Ra and IFN-γ after oral enteric-coated capsules” value in the data set with IL-1Ra (compared with intravenous administration) is “increased IL-1Ra without significant induction of IFN-γ”. In addition, the “increased serum levels of MCSF, IL12 p70, IL-3” value in data set [2] (8.45 mg/kg) is reported as “Treatment-mediated suppression”. Moreover, the “reduction of plasma IL-23 compared with Vehicle” value in data set [2] (8.45 mg/kg prophylactic) is listed as 73%. Besides, the “reduction of plasma IL-6 compared with Vehicle” value in data set [2] (8.45 mg/kg prophylactic, Luminex) was 33%. For the same molecule, the “increase in ratio of pSTAT3 to total STAT3” value with STAT3 is on record as “approximately 50%”. Besides, in data set [3] (3.0 mg/kg), the “plasma TGF-β relative to Vehicle” value was “reduced”. The “production of IL-12 and IL-17” value in data set [3] (9.0 mg/kg) is “prevented”. Moreover, the “plasma MCSF” value in data set [3] (highest dose (9 mg/kg)) is “reduced”. For the same molecule, in data set [3] (mouse, in vivo), the “oxazolone-induced changes in LIX, LIF, IP10” value is “mitigated”; the “plasma IL-3, IL-4 (9.0 mg/kg), IL-28 (3.0 and 9.0 mg/kg), IL-31 (0.3 mg/kg)” value was “to near-base line levels”; the “plasma MIP1α” value is reported as “trend towards a reduction”. Moreover, the “oxazolone-induced increase in plasma GCSF/CSF3” value in data set [3] (prophylactic pre-treatment) is “attenuated”. In addition, the “plasma IL-13 and IL-15” value in data set [3] (vs Vehicle) is “trend towards an IL-10 delivery construct-mediated decrease”. For the same molecule, in data set [4], the “plasma rhIL-10 relative to background of Vehicle treatment” value is 10-300 fold higher.
